In data set [1] the target is T1, PDGF-BB (UniProt P01127 P01127:82-190). In words: printed as 5.0 x 1011 mol/L, exponent sign lost; sandwich plate assay with biotin-aptamer capture, PBS, 37 C, linearized Langmuir. The conditions noted are these: tags: Sigma-Aldrich; chain copies: 2 (homodimer, inferred); label: Cy3. The procedure:
(§1) On the Basis of the linearized form of the Langmur absorption isotherm and the linear curve of FIG. 5C, the dissociation constants (KD) were determined by a PDGF-BB analysis method using each of the DNA-aptamer-conjugated gFFNP, eGFP, and Cy3, and the results are shown in Table 7.

The target of data set [2] is T1, PDGF-BB. In words: printed as 4.0 x 1011 mol/L, exponent sign lost; sandwich plate assay with biotin-aptamer capture, PBS, 37 C, linearized Langmuir. The conditions noted are these: tags: Sigma-Aldrich; chain copies: 2 (homodimer, inferred); label: eGFP. The procedure: as §1

The term Kd denotes the free concentration of one partner at which half of the binding sites on the other are occupied at equilibrium, for simple one-to-one binding. Higher therefore signals a looser complex.

T1 sequence (P01127 82-190, one chain of several): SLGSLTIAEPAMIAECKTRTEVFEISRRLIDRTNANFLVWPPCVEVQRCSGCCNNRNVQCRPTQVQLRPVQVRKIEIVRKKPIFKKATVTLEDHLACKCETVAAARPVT

Consider CACAGGCTACGGCACGTAGAGCATCACCATGATCCTGTGT (ssDNA, 5'-Cy3) [PDGF-BB DNA aptamer Cy3-modified], for which binding with PDGF-BB [1] was characterised by a dissociation constant (Kd) of 0.05 nM.

Take CACAGGCTACGGCACGTAGAGCATCACCATGATCCTGTGT (ssDNA, 5'-NH2-(CH2)6, SSMCC-coupled to eGFP(S175C)) [PDGF-BB DNA aptamer conjugated to eGFP]: in the data set with PDGF-BB [2], binding was put at a Kd of 0.04 nM.

The values above are taken from US20130142732, “RECOMBINANT FLUORESCENT NANOPARTICLES” (KOREA UNIVERSITY RESEARCH AND BUSINESS FOUNDATION, published 2013).
